Measured values as given in paper PMC2714943 (Biochemistry, 2009).

Columns and labels:
[1] = test system: CC(C)=CCC/C(C)=C/CC/C(C)=C/CO[P@@](=O)(O)OP(=O)(O)O; assay: purified protein; type: biochemical, Gossypium arboreum; settings: Mg2+
[2] = target: (+)-δ-cadinene synthase (DCS, isozyme XC1) (Gossypium arboreum, UniProt Q39761)
Sequence of (+)-δ-cadinene synthase (DCS, isozyme XC1) (Q39761 whole entry): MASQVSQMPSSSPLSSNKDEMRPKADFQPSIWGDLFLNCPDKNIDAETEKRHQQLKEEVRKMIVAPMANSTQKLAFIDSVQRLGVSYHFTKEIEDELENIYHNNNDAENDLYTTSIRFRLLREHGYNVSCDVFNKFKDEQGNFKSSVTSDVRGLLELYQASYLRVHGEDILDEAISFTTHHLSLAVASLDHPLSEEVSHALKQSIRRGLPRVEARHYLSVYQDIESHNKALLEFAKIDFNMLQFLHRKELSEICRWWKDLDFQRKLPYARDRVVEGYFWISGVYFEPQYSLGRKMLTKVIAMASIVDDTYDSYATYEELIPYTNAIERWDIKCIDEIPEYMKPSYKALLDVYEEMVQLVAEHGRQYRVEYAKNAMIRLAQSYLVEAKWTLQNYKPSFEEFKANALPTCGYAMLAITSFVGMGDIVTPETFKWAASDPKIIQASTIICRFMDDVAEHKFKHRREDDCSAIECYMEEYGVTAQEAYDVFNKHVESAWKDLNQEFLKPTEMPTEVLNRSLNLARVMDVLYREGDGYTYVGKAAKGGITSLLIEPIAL

Row | Compound | Km [1] [µM] | Km [2] [µM]
1 | (+)-δ-cadinene synthase (DCS, isozyme XC1) (Gossypium arboreum; D452A) | 3.1 ± 1.2 | –
2 | (+)-δ-cadinene synthase (DCS, isozyme XC1) (Gossypium arboreum; D308A) | 43 ± 16 | –
3 | (+)-δ-cadinene synthase (DCS, isozyme XC1) (Gossypium arboreum; D451A) | 2.4 ± 0.3 | –
4 | CC(C)=CCC/C(C)=C/CC/C(C)=C/CO[P@@](=O)(O)OP(=O)(O)O [FPP] | – | 3.2 ± 0.5
